# From IntAct's records for PubMed 17357085
# B1: Homeobox protein SIX5 (Homo sapiens), Q8N196 (parent)
# chain: MATLPAEPSAGPAAGGEAVAAAAATEEEEEEARQLLQTLQAAEGEAAAAAGAGAGAAAAGAEGPGSPGVPGSPPEAASEPPTGLRFSPEQVACVCEALLQAGHAGRLSRFLGALPPAERLRGSDPVLRARALVAFQRGEYAELYRLLESRPFPAAHHAFLQDLYLRARYHEAERARGRALGAVDKYRLRKKFPLPKTIWDGEETVYCFKERSRAALKACYRGNRYPTPDEKRRLATLTGLSLTQVSNWFKNRRQRDRTGAGGGAPCKSESDGNPTTEDESSRSPEDLERGAAPVSAEAAAQGSIFLAGTGPPAPCPASSSILVNGSFLAASGSPAVLLNGGPVIINGLALGEASSLGPLLLTGGGGAPPPQPSPQGASETKTSLVLDPQTGEVRLEEAQSEAPETKGAQVAAPGPALGEEVLGPLAQVVPGPPTAATFPLPPGPVPAVAAPQVVPLSPPPGYPTGLSPTSPLLNLPQVVPTSQVVTLPQAVGPLQLLAAGPGSPVKVAAAAGPANVHLINSGVGVTALQLPSATAPGNFLLANPVSGSPIVTGVALQQGKIILTATFPTSMLVSQVLPPAPGLALPLKPETAISVPEGGLPVAPSPALPEAHALGTLSAQQPPPAAATTSSTSLPFSPDSPGLLPNFPAPPPEGLMLSPAAVPVWSAGLELSAGTEGLLEAEKGLGTQAPHTVLRLPDPDPEGLLLGATAGGEVDEGLEAEAKVLTQLQSVPVEEPLEL
# partner: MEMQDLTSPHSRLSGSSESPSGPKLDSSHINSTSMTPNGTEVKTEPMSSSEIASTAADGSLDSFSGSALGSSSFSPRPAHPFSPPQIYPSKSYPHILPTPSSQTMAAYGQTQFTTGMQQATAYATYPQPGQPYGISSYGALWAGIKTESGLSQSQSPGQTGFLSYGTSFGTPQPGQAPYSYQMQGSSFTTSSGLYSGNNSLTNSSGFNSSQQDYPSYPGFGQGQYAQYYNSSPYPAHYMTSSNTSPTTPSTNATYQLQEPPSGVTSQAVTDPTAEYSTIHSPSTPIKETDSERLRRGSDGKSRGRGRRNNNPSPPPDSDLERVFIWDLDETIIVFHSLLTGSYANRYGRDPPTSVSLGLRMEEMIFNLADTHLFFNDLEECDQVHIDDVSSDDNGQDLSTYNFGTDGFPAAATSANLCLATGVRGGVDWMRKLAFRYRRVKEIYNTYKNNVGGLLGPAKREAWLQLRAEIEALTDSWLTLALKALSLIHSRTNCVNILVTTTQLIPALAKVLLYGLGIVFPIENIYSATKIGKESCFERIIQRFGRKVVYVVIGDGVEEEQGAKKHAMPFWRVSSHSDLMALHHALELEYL
# Variants of: B1
# Conditions: with eya1_mouse Eya1, P97767
row,effect of a mutation on the interaction,Variant
1,decreasing interaction,A158T
2,decreasing interaction,T552M
